Assay results from publication PMC428907.

Experiments:
purified protein [1] = substrate: Nc1nc2c([nH]c(=O)n2[C@H]2C[C@H](O)[C@@H](COP(=O)(O)OP(=O)(O)O)O2)c(=O)[nH]1; assay: purified protein; settings: pH 9.4, 7.5 mM Mg2+ (optimal conditions), 37°C
purified protein [2] = substrate: Nc1nc2c(ncn2[C@H]2C[C@H](O)[C@@H](CO[P@](=O)(O)OP(=O)(O)O)O2)c(=O)[nH]1; assay: purified protein; settings: pH 9.4, 7.5 mM Mg2+ (optimal conditions), 37°C

B1: DR0975 protein (Deinococcus radiodurans R1 = ATCC 13939 = DSM 20539) (protein)
chain: MGRRDLLVAAGILRDRFGRVLLVGNDWQGHGRVRHTLPGGVVEHGETLPEALYREIYEETGLKLTGIKHMAYTVHIEDERRGERAIAVAFEATWEGLLNPADPDGFIVEARFCTVDEALDKLDSPPMREPLADYLNTGEPGRFYAFKGWDGRGGLRIPTLKPVVKDR
Purified protein [1]
  Km: 170 µM
  kcat: 0.13 s⁻¹
Purified protein [2]
  Km: 110 µM
  kcat: 0.18 s⁻¹
